Data on three molecules can be found in patent publication US20080311122A1, “Antagonists of Hmgb1 and/or Rage and Methods of Use Thereof” (Medimmune, LLC, priority 2005, published 2008).

For one assay, the target named is T1, HMGB-1 (Homo sapiens, UniProt P09429).
T1 sequence (P09429 1-215): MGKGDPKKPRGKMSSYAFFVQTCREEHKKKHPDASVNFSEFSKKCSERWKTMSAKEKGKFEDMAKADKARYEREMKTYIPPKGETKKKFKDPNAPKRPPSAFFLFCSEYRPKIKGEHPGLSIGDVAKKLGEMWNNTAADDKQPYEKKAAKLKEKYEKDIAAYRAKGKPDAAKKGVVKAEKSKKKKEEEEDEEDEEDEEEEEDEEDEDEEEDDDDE
In words: Antibody HMG1 binding competition via BIAcore analysis. The method, then: Antibody HMG1 Binding Competition via BIAcore Analysis: All experiments were performed on a BIAcore 3000 instrument (BIAcore, Inc., Piscataway, N.J.). The HMGB-1 protein was immobilized onto a CM5 sensor using a standard amine coupling chemistry protocol, as described in the BIAcore Handbook (BIAcore, Inc., Piscataway, N.J.). Briefly, the CM5 surface subject to the NHS/EDC activation. After activation a HMGB-1 was injected over the surface at a concentration of 100 nM or 200 nM (in 10 mM NaOAc, pH4) to a surface density of between 1100 and 1200 RU's. Following this, unreacted sites on the sensor chip surface were “capped” with an injection of 1M ethanolamine. For reference purposes, a blank flow cell was also prepared, utilizing this same procedure that was used to immobilize HMGB-1, but without any ligand.
MAbs G2, G4, G9, S6 and Synagis were prepared at 1 uM and 2 uM. All mAb solutions were prepared in HBS-EP buffer (BIAcore, Inc., Piscataway, N.J.). Each cycle started with a 100 μL injection of the first mAb, injected at 1 μM, followed by a second 100 μL injection of a 1:1 mixture of two, 2× concentration mAbs, such that the final concentration of each component mAb in the mixture is equivalent to the first injection. […]
Once the entire set had been collected, the maximum RU responses for each mAb after each injection cycle was recorded. […]

Assay [1] concerns HMG1 enhancement of PAMP stimulation. In words: Inhibition of the enhancement of PAMP stimulation by HMG1 (Table 1 summary). The conditions noted are these: PAMP used and cytokine assayed are indicated. It counts as cell-based. The method, then: Inhibition of HMG1 Mediated Enhancement of TLR Signaling: Human PBMCs were treated with Tx-HMGB1+LPS (as described above) in combination with either the Anti-HMG1 antibody E11, S16 or G4, anti-TLR4 antibody, or isotype control antibodies (R3, IgG2a) and incubated overnight at 37° C., 5% CO2 in the presence of 8 U/mL Polymyxin B. The supernatants were assayed for cytokine levels (FIG. 22, right panel).
(§1) Inhibition of HMG1 Mediated Enhancement of TLR Signaling: Freshly isolated bone marrow cells were stimulated with TLR9 ligand CpG2216 (0.3 μM) and thymus HMGB1 (10 μg/mL) in the presence of different concentration of the anti-HMGB1 mAb E11 or control human IgG for 24 hr and IFN-a in the supernatant was measured by ELISA. CpG2216, HMGB1 and nonstimulatory DNA were used alone or in combination as controls for the assay.

Assay [2] has as its system CpG2216+thymus HMG1 induced IFN-a release (TLR9 signaling). In words: Inhibition of HMG1 mediated enhancement of TLR9 signaling, CpG2216 + thymus HMG1 in bone marrow cells. The conditions noted are these: mouse bone marrow cells. It counts as cell-based. The method, then:
HMGB1+TLR Ligand: Freshly isolated bone marrow cells were stimulated with TLR ligands (TLR3:PolyIC@5 μg/mL; TLR4:LPS@2.5 ng/mL; TLR5:flagellin@0.25 μg/mL; TLR7:polyU@4 μg/mL or R837@5 μg/mL; TLR9:CpG2216@1 μM) with or without presence of thymus HMGB1 (10 μg/mL) for 24 hr. Cytokines in the supernatant were measured by ELISA.
as §1

In assay [3] the test system is LPS+HMG1 induced TNF-a release (TLR4 signaling). In words: Inhibition of HMG1 mediated enhancement of TLR4 signaling, LPS+HMG1 TNF-a release. Type of assay: cell-based, mouse.
Assay [4] addresses T2, native (thymus) HMG1 binding to RAGE/Fc (Bos taurus, UniProt P10103).
T2 construct: from tissue; host or cells: bovine (calf) thymus
T2 sequence (P10103 2-215 limits assumed): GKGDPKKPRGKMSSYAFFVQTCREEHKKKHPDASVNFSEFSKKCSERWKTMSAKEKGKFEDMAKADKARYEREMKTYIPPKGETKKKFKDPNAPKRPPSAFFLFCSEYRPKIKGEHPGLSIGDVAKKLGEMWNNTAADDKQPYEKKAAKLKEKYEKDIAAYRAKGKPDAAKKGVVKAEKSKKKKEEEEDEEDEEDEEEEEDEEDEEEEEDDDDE
The assay can be described thus: Inhibition of native HMG1 binding to Rage-Fc (ELISA). On the set-up: species or system bovine. The conditions noted are these: at the concentrations tested. How it is done:
Inhibition of Native HMG1 Binding to Rage-Fc: Recombinant RAGE/Fc was coated on ELISA plate at 5 μg/mL, 0.1 mL/well. HMGB1 (0.5 μg/mL) was pre-incubated with anti-HMGB1 mAb clone E-11 or G-4 at different concentrations for 0.5 hr. After blocking the plate, anti-HMGB1 mAb pre-incubated HMGB1 was added to RAGE/Fc coated plate for 2 hr. RAGE bound HMGB1 was detected with Biotin labeled anti-HMGB1 pAb.
For orientation: An ELISA detects its analyte on a solid surface through an enzyme-linked reagent.

“Also recorded” adds a separate entry of the source.

B1: G9: human anti-HMG1 antibody; VL/VH aa SEQ ID NO: 34/36 (antibody, listed as Homo sapiens, V domains shown)
VH: EVQLLESGGGLVQPGGSLRLSCAASGFTFSSYDMFWVRQAPGKGLEWVSRISPSGGYTYYADSVKGRFTISRDNSKNTLYLQMNSLRAEDTAVYYCARLRYFDSRGYAFDIWGQGTMVTVSS
VL: AQDIQMTQSPGTLSLSPGERATLSCRASQSVRSSYLAWYQQKPGQAPRLLIYGASTRATGIPDRFSGSGSGTDFTLTISRLEPEDFAVYYCQQYGTSRWTFGQGTKVEIK
Regarding B1, the “binding sites on HMGB1 by BIAcore competition” value with HMGB-1 is given as “bind to either the same site or sites that are highly related perhaps overlapping”.

B2: E11: human anti-HMG1 antibody, recognizes HMG1 A-Box; VL/VH aa SEQ ID NO: 24/26 (antibody, listed as Homo sapiens, V domains shown)
VH: EVQLLESGGGLVQPGGSLRLSCAASGFTFSRYQMNWVRQAPGKGLEWVSSISPSGGHTHYADSVKGRFTISRDNSKNTLYLQMNSLRAEDTAVYYCAKDGRQGKISTVDHWGQGTLVTVSS
VL: AQDIQMTQSPGTLSLSPGERATLSCRASQSVRSNFLAWYQQKPGQAPRLLIYGASRRASGIPDRFSGSGFGADFTLSISRLEPEDFAVYYCQQYGSSPNTFGQGSRVEIK
Turning to B2, the “Inhibition of Synergy (PAMP/Cytokine)” value in assay [1] is “CpG/IFN-a, LPS/IL-6”. In assay [2], the “inhibition of IFN-a release induced by CpG + thymus HMG1” value was “could be blocked; also recorded: inhibited the release of INF-a induced by CpG2216+thymus HMG1” and the “inhibition of IFN-a release induced by CpG alone” value is “not blocked; also recorded: Neither E11, G4 or Rage/Fc inhibited”. In addition, in assay [3], the “inhibition of TNF-a release induced by LPS+HMG1” value is “inhibits the release of TNF-a induced by LPS+HMG1; also recorded: could be blocked; also recorded: inhibit the release of TNFa induced by LPS+HMG1” and the “inhibition of signaling by LPS alone” value is listed as “inhibit signaling by LPS alone”. Further, the “block of native (thymus) HMG1 binding to RAGE” value in assay [4] was “significant ability to block the binding of native HMG1 to RAGE; also recorded: can block native HMG1 binding”.

B3: S16: human anti-HMG1 antibody, ATCC PTA-6259; VL/VH aa SEQ ID NO: 13/15 (antibody, listed as Homo sapiens, V domains shown)
VH: EVQLLESGGGLVQPGGSLRLSCAASGFTFSWYSMLWVRQAPGKGLEWVSYISPSGGFTNYADSVKGRFTISRDNSKNTLYLQMNSLRAEDTAVYYCARWDYNSGWYYDHWGQGTLVTVSS
VL: AQDIQMTQSPDTLSLSPGERATLSCRASQSVNSRNLAWYQQKPGQAPRLLIYGASTRATGIPDRFSGSVSGTEFTLTISSLQPDDFATYYCQQYNSYFTFGQGTKLEIK
Regarding B3, in assay [1], the “Inhibition of Synergy (PAMP/Cytokine)” value is listed as “LPS/IL-6”.
